Experimental findings from patent US20050287148A1 are described below.

One test has as its target the best Ab2. Put plainly: unlabeled 14G2a competing with plate-bound 14G2a for 125I-labeled Ab2.
Test [1] deals with monoclonal anti-GD2 antibody 14G2a. Put plainly: competition RIA, 5 µl Ab2 hybridoma culture supernatant, 125I-14G2a on GD2-positive M21/P6 cells.
For test [2] the target is unchanged. Put plainly: competition assay, Ab2 against 14G2a binding to GD2-expressing M21/P6 cells.
For test [3] the target is unchanged. Kind of test: competition RIA, Ab2 mixed with 125I-14G2a, M21/P6 cell monolayer.

In general, % inhibition refers to how much of the control response was suppressed. A lower % inhibition goes with a weak effect. In the case of monoclonal anti-GD2 antibody 14G2a, the % inhibition with the best Ab2 was over 90%.

B1: monoclonal anti-idiotype antibody 1A7 (antibody, V domains shown)
VH: QVQVKESGPFLVPPSQSLSITCTVSGFSLTTYGVSWIRQPPGKGLEWLGAIWGDGTTNYHSALISRLSISKDNSKSQVFLKLNSLQTDDTATYYCAKLGNYDALDYWGQGTSVTVSS
VL: DVFMTQTPLSLPVSLGDQASISCRSSQSIVHSNGNTYLEWYLQKPGQSPNLLIYFVSNRFSGVPDRFSGSGSGTDFTLKISRVEAEDLGVYYCFQGSHVPWTFGGGTKLEIKR
On to B1, for which the % inhibition of binding of radiolabeled 14G2a to M21/P6 cells in test [1] is over 70%. Moreover, the % inhibition of binding of 14G2a to M21/P6 cells in test [2] was over 75%. In test [3], this molecule yielded a lowest amount that inhibits 14G2a binding to GD2 expressing cells of 25 ng.
